According to the DeepSol protein solubility set:

assay: soluble on expression in E. coli; label from the status in PepcDB or PDB records

Sequence	soluble on expression in E. coli
MLIACRLCAKAVQQGLKTVVYVPDERLAGQFDKLLWTFTPTGFVPHCRVDNKLADVTPVIMNSRPVLMEAGCFGVLLNLDADVPPGFEQFPRVVEIVDEAEDGKLQARKRYRHYQEQGHDVRHHRLDGN	not soluble
SSAEAGGGIRKRHRTKFTAEQKERMLALAERIGWRIQRQDDEVIQRFCQETGVPRQVLKVWLHNNKH	soluble
KALVSIQASNIPKTAYTATDFVDMNSYSYNNITTSLPGNYADFAVIEVNLNLKNQRDQQILHDFVKPAIKAYKALGDTLELFSAKPLNQFIEQNYYLLGYPVINKGNNTANLLLAQQKSFDHNNSDHNQKSQWFTK	not soluble
MLSRLTSRNVLLARNVATAATQERQKIKVDNPVVDLDGDEMTRIIWKEIKNKLILPYLDLDIKYYDLGLEYRDETNDQVTIDAAHAILEHSVGIKCATITPDEARIKEFNLKKMWLSPNGTIRNILGGTVFREPILCKNIPRLVPGWTQPITIGRHAFGDQYKCTDLVIPSGSTLQLLVNKPDGSKDVHNVYDFKKSGGVGLAMYNTDESIKGFAHSCFQYALMKQWPLYLSTKNTILKKYDGRFKDIFQDIYEKKYEADFKNNKIWYEHRLIDDQVAQALKSSGGFVWACKNYDGDVQSDIVAQGYGSLGLMSSVLMCPDGKTIEAEAAHGTVTRHYREHQKGNSTSTNPIASIFAWTRGLHHRGVLDNNEALKTFSLTLEKACIDTVEEGKMTKDLSICIHGTKKGTEKGAYLITEDFLSAIDTKMAELMRQD	not soluble
MTARYIAIDWGSTNLRAWLYQGDHCLESRQSEAGVTRLNGKSPAAVLAEVTTDWREENTPVVMAGMVGSNVGWKVAPYLSVPARFSSIGEQLTSVGDNIWIIPGLCVSHDDNHNVMRGEETQLIGARALAPSSLYVMPGTHCKWVQADSQQINDFRTVMTGELHHLLLNHSLIGAGLPPQENSADAFAAGLERGLNAPAILPQLFEVRASHVLGTLPREQVSEFLSGLLIGAEVASMRDYVTHQHAITLVAGTSLTARYQQAFQAMGCDVAAVAGDTAFQAGIRSIAHAVAN	soluble
PEMQSMIVAEINPAYRSLIADEPQIAPLLQDKRVEIVLDDGRKWLRRHPDEKFDLILMNTTWYWRAYSTNLLSAEFLKQVQSHLTPDGIVMFNTTHSPHAFATAVHSIPYAYRYGHMVVGSATPVVFPNKELLKQRLSRLIWPESGRHVFDSSTVDAAAQKVVSRMLIQMTEPSAGAEVITDDNMIVEYKYGRGI	not soluble
MLWMVIGMWDTSKDYRLMVAVKAVDLFRRTLESGGFRGQWKKKPALQAAGEIERILQGLTYCYMEPEDLASSPEVMEIKGKVEEIVEALGGEDWSRRFLEEAPREEREKVEENIARVRFFLNTLGNLDRRLMLGKISDPVIGVDIITGEVMSVGNHPVADKLHVCNVNAGGRSIKVVTNDLDVRENDHVAVALLPPQNFMGVTSEGMFLGVEGVLRDVDGEPGEMPRGIPLEALNETRNLVEEFLKS	soluble
MADLEAVLADVSYLMAMEKSRSQPAARASKRIVLPDPSVRSIMQKFLEKSGDMKFDKIFNQKLGFLLLKDYAENVSESPCPQIKFYEAIKEYEKMETPDERLTKAREIYDHHIMVEMLAHAHNYSKESLQHVQYHLLKQNVPPDLFHRYVLEICDQLRGDIFQRFLESDKFTRFCQWKNLELNMQLTMNDFSVHRIIGRGGFGEVYGCRKADTGKMYAMKCLDKKRIKMKQGETLALNERIMLSLVSTGQDCPFIVCMTYAFQSPDKLCFILDLMNGGDLHYHLSQHGVFTEQEMIFYASEVILGLEHMHNRFVVYRDLKPANILLDENGHVRVSDLGLACDYSKKKPHASVGTHGYMAPEVLAKGVAYDSSADWFSLGCMLYKLLKGHSPFRQHKSKDKNEIDKMTLTQDIELPNEGLSKDCRDLLEGLLKRDVPDRLGCRGKGPTEVKEHPFFKDVDWQTVYLRRMTPPLIPPRGEVNAADAFDIGNFDDDEVKGVKLQDGDSDLYKNFNIVISERWQNEIAETIFEVVNQDADKAESKKRSKQKIKVAVEEKDSDVIVHGYIKKLGGPFTSAWQTKYGKLYPSRLELYPESLTAKPELVFMDQIEDVCAEMQTIKGETAIIVKLRDGFKEPKICLTNSDEISLKEWHTSLRTAHKVSQELLQRMGRKAIKIYGVNHDPMLSESERPGSVTRAFLNRASSVDSGV	not soluble
MGSDKIHHHHHHMEKVKVKNPIVELDGDEMARVMWKMIKEKLILPYLDIQLVYFDLGIKKRDETDDQITIEAAKAIKKYGVGVKCATITPDAERVKEYNLKKAWKSPNATIRAYLDGTVFRKPIMVKNVPPLVKRWKKPIIIGRHAYGDIYNAVEAKVEGPAEVELVVRNKENKTLLVHKFEGNGVVMAMHNLEKSIRSFAQSCINYAISEKVDIWFATKDTISKVYHAYFKDIFQEEVDKRKEELEKAGVNYRYMLIDDAAAQILRSEGGMLWACMNYEGDIMSDMIASGFGSLGLMTSVLVSPDGVYEFEAAHGTVRRHYYRYLKGEKTSTNPTASIFAWTGAIRKRGELDGTPEVCEFADKLEKAVINTIESGVITKDLQPFTEPPIDKYVTLEEFIDEVKKNLEKLL	not soluble
MNETIAFRPEGRASIKDVVVNYTLASLDELEQLHPALNLLAHPSIVRGSHDFFVRCYDAGVQHAQAGAAETVAVLPDSLPQERQRSGLLCAAAGRLDALRQPLTHNRLCDLASQFCAGMADVDSETRSGFYTVRSISLPVYRRLLRDQHSHGVCLQQALLHLLAWKSDSPWARQQAQRLLWQGGVLGDKGEFALMTLDDELRERQIGWPGLWSLLAVTGFLAKFPAGPIFAD	not soluble
MANPELLEEQREETRLIIEELLEDGSDPDALYTIEHHLSADDFETLEKAAVEAFKLGYEVTEPEELEVEEGDTVICCDILSECALNAELIDAQVEQLMNLAEKYDVEYDGWGTYFEDPNGEEGDDDDYVDEDDDGVRH	not soluble
MAPVTPDAVNARQQRPADPALRRLMHPHHRNYTASKASAHSVKSVSRCGKSRSELGRMERVGSVARSICSRHTRHGVDRSHFSLRDFFRGISANFELGKDFLREMNTPIHVSEAVFLPLSLCTLSPGRCLRLSPFGHSLTLGSHCEICINRSQVHVPQEFSSTQLSFFNNVHKIIPNKTFYVSLLSSSPSAVKAGLSQPSLLYAYLVTGHFCGTICPIFSTNGKGRLIMHLLLQGTSLHIPETCLKLLCENIGPTYELAVDLVGDAFCIKVSPRDTVYEKAVNVDEDAIYEAIKDLECGDELRLQIINYTQLILENKQ	not soluble
PELPTCLTRRLADYATEKPLVRLFFQGEEATVPFISQTSRELNMDINILLANIDRFDGVTCGVLVVELTANPLLLEAFINRCEQAGITVEVLGYVLPDGL	not soluble
MTDMKVLKMEVMRYNPERDSEPHFETFEVPYDEQTSLLDALGYIKDNLAPDLSYRWSCRMAICGSCGMMVNKVPKLACKTFLREYTAGMKVEALGNFPIERDLVVDMTHFIESLEAIKPYIIGNERLPKDGPNKQTPAQMAKYHQFSGCINCGLCYAACPQFGLNPEFIGPAAITLAHRYNLDNRDHGKKERMPQLNGKNGVWSCTFVGYCSEVCPKHVDPAAAIQQGKIDSAKDFMIAMLKPQ	not soluble
MNEEQRKAGTINILAERDRKAEKDYSKYFEQVYQPPSLKEAKKRGKQEVQYNRDFHIDEKYKGMGKGRTFLIKTYGCQMNAHDTEVMAGILNALGYSATSDINEADVILINTCAIRENAENKVFSEIGNLKHLKKERPDCLIGVCGCMSQEESVVNKILKSYQNVDMVFGTHNIHHLPEILEEAYLSKAMVVEVWSKEGDIIENLPKVRDGHIKAWVNIMYGCDKFCTYCIVPFTRGKERSRRPEDIIDEVRELAREGYQEITLLGQNVNSYGKDIEGLDYELGDLLEDISKIDIPRVRFTTSHPWDFTDRMIEVIAKGGNIVPHIHLPVQSGNNQVLKIMGRKYTRESYLDLVSRIKEAIPNVALTTDIIVGYPNETEEQFEETLSLYDDVQFEHAYTYLYSQRDGTPAAKMKDNVPLEVKKERLQRLNKKVGIYSQQAMSQYEGKIVTVLCEGSSKKDENVLAGYTDKNKLVNFKGPRESIGKLVDVKIDEAKQYSLNGTFIQEHQRSMVTQLEHHHHHH	soluble
MNTDELEHRRFDDLFSLVADPGFLLVAWDLVRGNKGASAAGVDGSTASSIALWVGVEKFLDMLRSQIKDRSFQPMPVRERMIPKAGGKLRRLGIATITDRVVQASLKLARFGEAAPGKRTGRKTGTAPRADFTPAIGCAFRYSPVLEHHHHHH	not soluble
MGSDKIHHHHHHVTTVTRSFDDAWRRWIAENLLLDAPPSALHGALLGHGFDAADVTREIEAALASPYFHGAARLRNRLRKREWILSVYSELNRMRAASGVIERCERLSRDAFFEQYYFQNRPVIITGAFDFWPACSRWNWDYLRRQCGDCEVEVQFGRESDANYEINQPRLTRMMRFADYVDLVEQRGPTNDFYMTANNTSRNRAALAALWSDVPPIDAYLDAASPDTGFFWMGPAGTKTPFHHDLTNNFMAQVIGRKHIKLVPLSDTPYMANHLHCYSRVDGGAIDFDSFPSMRQAQLIECTLAPGELLFLPVGWWHYVEGIDASVTMTFTNFLRSNDFSRRYDTYHEL	not soluble
MGSDKIHHHHHHMPYKTLKTIDYEAHHDSKTVGTEYERRIHNYGIFKSGLYPFLIDHQELSQDRRELFITPLREIAIACERIEYNSAELKSKLKELPPIAEELYLKKSLINEITTSNRLSGIAVRRTEVKAALDSINKDNQEQVRFAPMAKMYNKILEDDFQRIESFVDLRKVYNQLLFGLIEKEQMPDGAFFRNRPVSIKNDQQKIIFQLPGNENDLEQRLSNWLKFISNKNIPFMIKGLLAHGYFENIHPFYDGNGRTSRYILSLYLARKLDLVTGLNVAQAIYENRESYEKALLALGDQGNFAEGSFFINDSLSMIENRQRKIIEDLDVNIKQLSRTNKKIQQIYQINSPEYFVLNLLLQSKIFTDNQADGLLDREIVEISENSKHSKRAINLAIKSLEQKKQITTLKKNPFQHSIDIN	not soluble
MGSDKIHHHHHHMIMLTVSDYLAQPVVSPDVSIRYGDHPDQFGDLYLPAQVHPAPVVMMIHGGCWQAAYPLTPLGECCAALRARGYAVWNLEYRRLGNGGGWPSTFLDVAAGADHLRVLAEHYPLDLNRVVVVGHSAGGHLALWLATRPKLPPTSPLYIPHPLPVHGVVALAAVADLRRGVTATACGTACLELIDNEESRCAEASPHARLPLDIPHYHLVGGDDPIVPASYVAAFVDAARQAGDLAHLTIVPKCGHFELTTPHSQAWQTVVQTIDKACSLNRS	not soluble
MAHHHHHHMVNQTPHIVILSYDEEKINKFVSFLMSTFEPLESYEKAETYKLTFDRNDFHSGNGSSFAFKEVAKVAIVNKYYSAEVTISSCVVQSGENALRVEGSMPNGGLPDEANLPNGGLPDEANTPKMDLPDGAKPELQNQANELDAKDILCESVIFLFNNFTKKEKNIVNGNPFRSYDEECVEYIKDPESQQMIRNTHFDFSNLYKDVGIKIAIFPSSLEKDNKDIVNFFSDYFIECLYINYESAFLAEGGGQDDGHPSCPEEGDQNVKEEKTLLREFEEQEDDERLVEALHCHMWKGLQIKRDHLIIQHRGDFPMGEAFKGDEAARKGEKTPQKDEASPNGEKTPQKDEAAPNGENPPQRDAPATSGAAKIDLSGTLANSAKTPEGQKEELFMENFNKIVEKIRVAKMENKNCSNHAARRKKAEEIIFELQQYFCDIDGE	not soluble
MTSLSSPSPIQHTTSSFLNNFMPTPSLINLQQGYRNPDLGSQDLARLDASRHESIQKVSRKLSTYEEEKNLIENELEEIERTGARLLSIVEQKDNFLASRIRRFMEKSKELVGIETLLRLQLNKHNERIKDGLIDISAARGEESYLQKRFKDTDFLRKISARREIDYDKELSEIFTDDQFHRWVMFKKATLQLLQTESSVSYYIRESNAKLDALHLAPRGTSA	not soluble
